“And” between values parts separate entries of the source, which are not always exact repeats. Equal entries are not always repeated. Where two headings read alike, the source gives them in different places.
Assays:
Test in all cases: cell-based or functional assay
[1] = target: HIV-1 Env of ZM106.9.SG3 pseudovirus (clade C) (HIV-1)
[2] = target: HIV-1 Env of CNE31.SG3 pseudovirus (clade C) (HIV-1)
[3] = target: HIV-1 Env of TH966.8.SG3 pseudovirus (clade AE) (HIV-1)
[4] = target: HIV-1 Env of PVO.04.SG3 pseudovirus (clade B) (HIV-1)
[5] = target: HIV-1 Env of KER2008.12.SG3 pseudovirus (clade A) (HIV-1)
[6] = target: HIV-1 Env of ZM215.8.SG3 pseudovirus (clade C) (HIV-1)
[7] = target: HIV-1 Env of 6095.V1.C10.SG3 pseudovirus (clade ACD) (HIV-1)
[8] = target: HIV-1 Env of ZM106.9.SG3 pseudovirus (clade C) (HIV-1); remark: listed apart in the source
[9] = target: HIV-1 Env of YU2.DG.SG3 pseudovirus (clade B) (HIV-1) (UniProt P35961)
[10] = target: HIV-1 Env of CNE31.SG3 pseudovirus (clade C) (HIV-1); remark: listed apart in the source
[11] = target: HIV-1 Env of TH966.8.SG3 pseudovirus (clade AE) (HIV-1); remark: listed apart in the source
[12] = target: HIV-1 Env of PVO.04.SG3 pseudovirus (clade B) (HIV-1); remark: listed apart in the source
[13] = target: HIV-1 Env of 6101.10.SG3 pseudovirus (clade B) (HIV-1)
[14] = target: HIV-1 Env of KER2008.12.SG3 pseudovirus (clade A) (HIV-1); remark: listed apart in the source
[15] = target: HIV-1 Env of ZM215.8.SG3 pseudovirus (clade C) (HIV-1); remark: listed apart in the source
[16] = target: HIV-1 Env of 6095.V1.C10.SG3 pseudovirus (clade ACD) (HIV-1); remark: listed apart in the source
[17] = target: HIV-1 Env of YU2.DG.SG3 pseudovirus (clade B) (HIV-1) (UniProt P35961); remark: listed apart in the source
[18] = target: HIV-1 Env of 6101.10.SG3 pseudovirus (clade B) (HIV-1); remark: listed apart in the source

Sequence of 10E8v4 S100cF (antibody) (VH): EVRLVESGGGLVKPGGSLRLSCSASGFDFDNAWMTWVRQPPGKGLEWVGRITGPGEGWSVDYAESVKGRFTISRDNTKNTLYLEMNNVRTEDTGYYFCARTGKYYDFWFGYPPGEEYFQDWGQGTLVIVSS
Sequence of 10E8v4 S100cF (antibody) (VL): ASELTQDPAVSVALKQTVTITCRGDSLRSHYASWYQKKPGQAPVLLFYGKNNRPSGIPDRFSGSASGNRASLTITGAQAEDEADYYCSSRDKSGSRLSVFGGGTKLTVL
Sequence of 10E8v4 S100cW (antibody) (VH): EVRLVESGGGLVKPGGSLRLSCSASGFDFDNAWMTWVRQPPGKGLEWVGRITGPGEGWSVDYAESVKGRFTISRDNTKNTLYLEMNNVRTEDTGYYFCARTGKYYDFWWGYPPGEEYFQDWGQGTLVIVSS
Sequence of 10E8v4 S100cW (antibody) (VL): as the sequence (VL) above
Sequence of 10E8v4 S100cH (antibody) (VH): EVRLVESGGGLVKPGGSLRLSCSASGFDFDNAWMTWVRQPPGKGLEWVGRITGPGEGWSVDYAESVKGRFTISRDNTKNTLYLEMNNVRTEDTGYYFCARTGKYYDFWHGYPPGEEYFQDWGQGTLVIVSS
Sequence of 10E8v4 S100cH (antibody) (VL): as the sequence (VL) above

Substance	IC50, pseudovirus neutralization [1] [µg/mL]	IC50, pseudovirus neutralization [2]	IC50, pseudovirus neutralization [3]	IC50, pseudovirus neutralization [4]	IC50, pseudovirus neutralization [5] [µg/mL]	IC50, pseudovirus neutralization [6] [ng/mL]	IC80, pseudovirus neutralization [6] [µg/mL]	IC50, pseudovirus neutralization [7] [ng/mL]	IC50, pseudovirus neutralization [9] [µg/mL]	IC80, pseudovirus neutralization [9] [µg/mL]	IC50, pseudovirus neutralization [10] [µg/mL]	IC80, pseudovirus neutralization [10] [µg/mL]	IC50, pseudovirus neutralization [11] [ng/mL]	IC80, pseudovirus neutralization [11] [µg/mL]	IC50, pseudovirus neutralization [12] [µg/mL]	IC80, pseudovirus neutralization [12] [µg/mL]	IC50, pseudovirus neutralization [15] [µg/mL]	IC50, pseudovirus neutralization [17] [µg/mL]	IC50, pseudovirus neutralization [18] [µg/mL]	IC50, pseudovirus neutralization [16] [µg/mL]	further results
10E8 antibody	> 50	1.19 µg/mL and 0.995 µg/mL	0.032 µg/mL and 0.023 µg/mL	2.09 µg/mL and 0.997 µg/mL	> 50																
10E8v4 S100cF (antibody)						3	0.02	1	0.073	0.482	0.097	0.306	2	0.017	0.147	0.696					IC80, pseudovirus neutralization [7]: 0.001 µg/mL; IC50, pseudovirus neutralization [8]: > 50 µg/mL; IC80, pseudovirus neutralization [8]: > 50 µg/mL; IC50, pseudovirus neutralization [13]: 1 ng/mL; IC80, pseudovirus neutralization [13]: 8 ng/mL; IC50, pseudovirus neutralization [14]: > 50 µg/mL; IC80, pseudovirus neutralization [14]: > 50 µg/mL
10E8v4 S100cH (antibody)						141	0.966	11	2.59	10.9	2.24	6.79	91	0.488	3.4	14					IC80, pseudovirus neutralization [7]: 0.046 µg/mL; IC50, pseudovirus neutralization [8]: > 50 µg/mL; IC80, pseudovirus neutralization [8]: > 50 µg/mL; IC50, pseudovirus neutralization [13]: 103 ng/mL; IC80, pseudovirus neutralization [13]: 643 ng/mL; IC50, pseudovirus neutralization [14]: > 50 µg/mL; IC80, pseudovirus neutralization [14]: > 50 µg/mL
10E8v4 S100cW (antibody)	> 50	0.107 µg/mL	0.003 µg/mL	0.085 µg/mL	> 50	1	0.012	1	0.042	0.331	0.041	0.149	1	0.007	0.088	0.388	0.004	0.031	0.002		IC80, pseudovirus neutralization [15]: 0.025 µg/mL; IC80, pseudovirus neutralization [16]: 1 ng/mL; IC80, pseudovirus neutralization [1]: > 50 µg/mL; IC80, pseudovirus neutralization [17]: 0.26 µg/mL; IC80, pseudovirus neutralization [2]: 0.295 µg/mL; IC80, pseudovirus neutralization [3]: 0.013 µg/mL; IC80, pseudovirus neutralization [4]: 0.459 µg/mL; IC80, pseudovirus neutralization [18]: 0.01 µg/mL; IC80, pseudovirus neutralization [5]: > 50 µg/mL; IC50, pseudovirus neutralization [13]: 1 ng/mL; IC80, pseudovirus neutralization [13]: 6 ng/mL
10E8v4 VL Y32A (antibody)	> 50	> 50 µg/mL	3.53 µg/mL	> 50 µg/mL	> 50												11.7	> 50	> 50	0.409	
10E8v4 VL Y32D (antibody)	> 50	> 50 µg/mL	> 50 µg/mL	> 50 µg/mL	> 50												> 50	> 50	> 50	1.55	
10E8v4 VL Y32E (antibody)	> 50	> 50 µg/mL	19 µg/mL	> 50 µg/mL	> 50												> 50	> 50	> 50	0.215	
10E8v4 VL Y32F (antibody)	> 50	3.2 µg/mL	0.031 µg/mL	2.25 µg/mL	> 50												0.102	2	0.08	0.017	
10E8v4 VL Y32H (antibody)	> 50	29.9 µg/mL	0.788 µg/mL	> 50 µg/mL	> 50												1.39	8.76	7.4	0.032	
10E8v4 VL Y32I (antibody)	> 50	> 50 µg/mL	21.4 µg/mL	> 50 µg/mL	> 50												> 50	> 50	> 50	1.3	

— patent US20190077849A1
